The series concerns the molecule itself. The series can be described thus: crystal structure; hanging-drop vapor diffusion, 20°C, 0.01 M CoCl2.6H2O, 0.1 M MES pH 6.5, 2.5 M ammonium sulfate; sample 0.1 mM CAP dimer, 0.05 mM DNA duplex, 0.4 mM cyclic AMP (no DNA in the crystal); space group P2(1)2(1)2, one dimer in the asymmetric unit, 1.97 Å.

B1: catabolite activator protein (CAP) (natural protein, Escherichia coli, UniProt P0ACJ8 1-210, looked up)
chain: MVLGKPQTDPTLEWFLSHCHIHKYPSKSTLIHQGEKAETLYYIVKGSVAVLIKDEEGKEMILSYLNQGDFIGELGLFEEGQERSAWVRAKTACEVAEISYKKFRQLIQVNPDILMRLSAQMARRLQVTSEKVGNLAFLDVTGRIAQTLLNLAKQPDAMTHPDGMQIKITRQEIGQIVGCSRETVGRILKMLEDQNLISAHGKTIVVYGTR
notes: crystallised with cobalt(II) and sulfate; also called cAMP–CAP
On to B1, for which the binding result was “binds”.

The record behind these values is publication PMC4014319, “Structure of catabolite activator protein with cobalt(II) and sulfate” (Acta Crystallographica. Section F, Structural Biology …, 2014).
